According to PMC4835091, “Characterization of the FtsZ C-Terminal Variable (CTV) Region in Z-Ring Assembly and Interaction with the Z-Ring Stabilizer ZapD in E. coli Cytokinesis” (PLoS ONE, 2016):
Numbering of substitutions follows the chain as printed. Numbers in names are those of the source.

B1: FtsZ(DQAK) (purified) (natural protein, E. coli, UniProt P0A9A6 1-383, looked up)
chain: MFEPMELTNDAVIKVIGVGGGGGNAVEHMVRERIEGVEFFAVNTDAQALRKTAVGQTIQIGSGITKGLGAGANPEVGRNAADEDRDALRAALEGADMVFIAAGMGGGTGTGAAPVVAEVAKDLGILTVAVVTKPFNFEGKKRMAFAEQGITELSKHVDSLITIPNDKLLKVLGRGISLLDAFGAANDVLKGAVQGIAELITRPGLMNVDFADVRTVMSEMGYAMMGSGVASGEDRAEEAAEMAISSPLLEDIDLSGARGVLVNITAGFDLRLDEFETVGNTIRAFASDNATVVIGTSLDPDMNDELRVTVVATGIGMDKRPEITLVTNKQVQQPVMDRYQQHGMAPLTQEQKPVAKVVNDNAPQTAKEPDYLDIPAFLRDQAK
notes: FtsZ of E. coli with the native CTV KQAD replaced by DQAK (net-neutral); pKHH9, pET-21b(+); also called net-neutral CTV mutant; source: E. coli C41(DE3), purified (25% saturated ammonium sulfate cut)
B2: FtsZ(QQQQ) (purified) (natural protein, E. coli, UniProt P0A9A6 1-383, looked up)
chain: B1 chain with D380Q, A382Q, K383Q
notes: FtsZ of E. coli with the native CTV KQAD replaced by QQQQ (net-neutral); pLT1, pET-21b(+); also called net-neutral CTV mutant; source: E. coli C41(DE3), purified (25% saturated ammonium sulfate cut)
B3: FtsZ(RQAR) (purified) (natural protein, E. coli, UniProt P0A9A6 1-383, looked up)
chain: B1 chain with D380R, K383R
notes: FtsZ of E. coli with the native CTV KQAD replaced by RQAR (net-positive); pAM3, pET-21b(+); also called net-positive CTV mutant; source: E. coli C41(DE3), purified (25% saturated ammonium sulfate cut)
B4: FtsZ(KQAK) (purified) (natural protein, E. coli, UniProt P0A9A6 1-383, looked up)
chain: B1 chain with D380K
notes: FtsZ of E. coli with the native CTV KQAD replaced by KQAK (net-positive); pKHH8, pET-21b(+); also called net-positive CTV mutant; source: E. coli C41(DE3), purified (25% saturated ammonium sulfate cut)
B5: FtsZ(DQAD) (purified) (natural protein, E. coli, UniProt P0A9A6 1-383, looked up)
chain: B1 chain with K383D
notes: FtsZ of E. coli with the CTV DQAD (net-negative) in place of KQAD; pKHH7, pET-21b(+); also called K380D; net-negative CTV mutant; source: E. coli C41(DE3), purified (20% ammonium sulfate cut)
B6: FtsZ(NRNKRG) (purified) (natural protein, E. coli | B. subtilis)
chain: MFEPMELTNDAVIKVIGVGGGGGNAVEHMVRERIEGVEFFAVNTDAQALRKTAVGQTIQIGSGITKGLGAGANPEVGRNAADEDRDALRAALEGADMVFIAAGMGGGTGTGAAPVVAEVAKDLGILTVAVVTKPFNFEGKKRMAFAEQGITELSKHVDSLITIPNDKLLKVLGRGISLLDAFGAANDVLKGAVQGIAELITRPGLMNVDFADVRTVMSEMGYAMMGSGVASGEDRAEEAAEMAISSPLLEDIDLSGARGVLVNITAGFDLRLDEFETVGNTIRAFASDNATVVIGTSLDPDMNDELRVTVVATGIGMDKRPEITLVTNKQVQQPVMDRYQQHGMAPLTQEQKPVAKVVNDNAPQTAKEPDYLDIPAFLRNRNKRG
notes: FtsZ of E. coli up to the CTV; the native CTV KQAD (380-383) is replaced by the next part; also called EcftsZCTVB; source: E. coli C41(DE3), purified (25% saturated ammonium sulfate cut)
B7: FtsZ(1-379) (purified) (domain or fragment, E. coli, UniProt P0A9A6 1-379, looked up)
chain: MFEPMELTNDAVIKVIGVGGGGGNAVEHMVRERIEGVEFFAVNTDAQALRKTAVGQTIQIGSGITKGLGAGANPEVGRNAADEDRDALRAALEGADMVFIAAGMGGGTGTGAAPVVAEVAKDLGILTVAVVTKPFNFEGKKRMAFAEQGITELSKHVDSLITIPNDKLLKVLGRGISLLDAFGAANDVLKGAVQGIAELITRPGLMNVDFADVRTVMSEMGYAMMGSGVASGEDRAEEAAEMAISSPLLEDIDLSGARGVLVNITAGFDLRLDEFETVGNTIRAFASDNATVVIGTSLDPDMNDELRVTVVATGIGMDKRPEITLVTNKQVQQPVMDRYQQHGMAPLTQEQKPVAKVVNDNAPQTAKEPDYLDIPAFLR
notes: also called FtsZ lacking the CTV residues; FtsZ without the CTV region; source: E. coli C41(DE3), purified (25% saturated ammonium sulfate cut)
B8: GAL4 AD-FtsZ(DQAK) fusion (natural protein, E. coli, UniProt P0A9A6 1-383, looked up)
chain: B1 chain
notes: FtsZ of E. coli with the native CTV KQAD replaced by DQAK (net-neutral); source: yeast two-hybrid fusion (pDEST-GADT7-ftsZ(DQAK) in S. cerevisiae SL3004, diploid after mating)
B9: GAL4 AD-FtsZ(RQAR) fusion (natural protein, E. coli, UniProt P0A9A6 1-383, looked up)
chain: B1 chain with D380R, K383R
notes: FtsZ of E. coli with the native CTV KQAD replaced by RQAR (net-positive); source: yeast two-hybrid fusion (pDEST-GADT7-ftsZ(RQAR) in S. cerevisiae SL3004, diploid after mating)
B10: GAL4 AD-FtsZ(QQQQ) fusion (natural protein, E. coli, UniProt P0A9A6 1-383, looked up)
chain: B1 chain with D380Q, A382Q, K383Q
notes: FtsZ of E. coli with the native CTV KQAD replaced by QQQQ (net-neutral); source: yeast two-hybrid fusion (pDEST-GADT7-ftsZ(QQQQ) in S. cerevisiae SL3004, diploid after mating)
B11: GAL4 AD-FtsZ(NRNKRG) fusion (natural protein, E. coli | B. subtilis)
chain: B6 chain
notes: FtsZ of E. coli up to the CTV; the native CTV KQAD (380-383) is replaced by the next part; also called E. coli FtsZ with the B. subtilis CTV; source: yeast two-hybrid fusion (pDEST-GADT7-ftsZ(NRNKRG) in S. cerevisiae SL3004, diploid after mating)

Molecular target: the molecule itself
Experiment: sedimentation of FtsZ polymers; FtsZ or CTV mutant 5 μM alone in 50 mM K-MOPS pH 6.5, 50 mM KCl, 2.5 mM MgCl2, 3 μM BSA, 1 mM GTP, room temperature; TLA100.2, 80,000 rpm, 10 min; percent of FtsZ in the pellet by SDS-PAGE
Conditions: not given

Row | Binder | binding result
1 | B1 | binds
2 | B2 | binds
3 | B3 | binds
4 | B4 | binds
5 | B5 | binds
6 | B6 | binds
7 | B7 | binds

These binders were tested against T1, GAL4 BD-ZapD fusion (E. coli, UniProt P36680 1-247) (assay: two-hybrid; GAL4 BD-ZapD with GAL4 AD-FtsZ fusions in diploid yeast grown in YNB (-Leu-Trp) at 30°C; beta-galactosidase activity in Miller units, mean of 10 independent trials). Conditions: partners not purified.
T1 construct: ZapD, Z-ring stabilizer of E. coli; also called pDEST-GBKT7-zapD; source: yeast two-hybrid fusion (pDEST-GBKT7-zapD in S. cerevisiae PJ69-4A, diploid after mating)
T1 sequence (looked up): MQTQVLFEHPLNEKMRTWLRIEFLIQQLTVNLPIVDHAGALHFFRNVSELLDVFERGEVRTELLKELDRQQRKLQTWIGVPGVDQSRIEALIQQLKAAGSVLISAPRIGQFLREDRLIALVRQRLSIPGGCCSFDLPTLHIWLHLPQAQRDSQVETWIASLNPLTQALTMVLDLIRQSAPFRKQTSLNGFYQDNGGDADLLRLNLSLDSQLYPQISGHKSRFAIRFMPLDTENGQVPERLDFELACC

Row | Binder | β-galactosidase activity [Miller units]
8 | B8 | 170
9 | B9 | 155
10 | B10 | 115
11 | B11 | 106
